Measurements from US12467929.

Experiments:
[1] = target: recombinant UBE3A protein (Homo sapiens (Human)) (UniProt Q05086); assay: 2-step Simoa; capture GTX; UBE3A 500 ng/ml
[2] = target: recombinant UBE3A protein (Homo sapiens (Human)) (UniProt Q05086); assay: 2-step Simoa; capture GTX; UBE3A 1.95 ng/ml
[3] = target: recombinant UBE3A protein (Homo sapiens (Human)) (UniProt Q05086); assay: 3-step Simoa; capture MS 2F6; UBE3A 0.010 ng/ml
[4] = target: recombinant UBE3A protein (Homo sapiens (Human)) (UniProt Q05086); assay: Simoa; capture GTX; SBG 100 pm; UBE3A 20.0 ng/ml
[5] = target: recombinant UBE3A protein (Homo sapiens (Human)) (UniProt Q05086); assay: Simoa; capture GTX; SBG 150 pm; UBE3A 0.800 ng/ml
[6] = target: recombinant UBE3A protein (Homo sapiens (Human)) (UniProt Q05086); assay: Simoa; capture GTX; SBG 75 pm; UBE3A 0.00640 ng/ml
[7] = target: recombinant UBE3A protein (Homo sapiens (Human)) (UniProt Q05086); assay: Simoa; capture GTX; 3E5 0.1 ug/ml; UBE3A 20.0 ng/ml
[8] = target: recombinant UBE3A protein (Homo sapiens (Human)) (UniProt Q05086); assay: Simoa; capture GTX; 3E5 0.1 ug/ml; UBE3A 4.00 ng/ml
[9] = target: recombinant UBE3A protein (Homo sapiens (Human)) (UniProt Q05086); assay: Simoa; capture GTX; 3E5 0.4 ug/ml; UBE3A 0.800 ng/ml
[10] = target: recombinant UBE3A protein (Homo sapiens (Human)) (UniProt Q05086); assay: Simoa; capture GTX; 3E5 0.1 ug/ml; UBE3A 0.00128 ng/ml
[11] = target: recombinant UBE3A protein (Homo sapiens (Human)) (UniProt Q05086); assay: Simoa head-to-head, Table 11; capture MS 2F6; UBE3A 0.16 ng/ml
[12] = target: recombinant UBE3A protein (Homo sapiens (Human)) (UniProt Q05086); assay: 3-step Simoa, 120 min bead step; capture GTX; UBE3A 0.00640 ng/ml
[13] = target: recombinant UBE3A protein (Homo sapiens (Human)) (UniProt Q05086); assay: Simoa; capture GTX + helper beads; 3E5 0.4 ug/ml; UBE3A 20.0 ng/ml
[14] = target: recombinant UBE3A protein (Homo sapiens (Human)) (UniProt Q05086); assay: Simoa; capture GTX + helper beads; 3E5 0.4 ug/ml; UBE3A 0.160 ng/ml
[15] = target: recombinant UBE3A protein (Homo sapiens (Human)) (UniProt Q05086); assay: Simoa; capture GTX, no helper beads; 3E5 0.2 ug/ml; UBE3A 20.0 ng/ml
[16] = target: recombinant UBE3A protein (Homo sapiens (Human)) (UniProt Q05086); assay: Simoa; capture GTX + helper beads; 3E5 0.2 ug/ml; UBE3A 0.00128 ng/ml
[17] = target: recombinant UBE3A protein (Homo sapiens (Human)) (UniProt Q05086); assay: Simoa; capture GTX, no helper beads; 3E5 0.1 ug/ml; UBE3A 0.800 ng/ml
[18] = target: recombinant UBE3A protein (Homo sapiens (Human)) (UniProt Q05086); assay: Simoa; capture GTX, no helper beads; 3E5 0.4 ug/ml; UBE3A 0.800 ng/ml
[19] = target: recombinant UBE3A protein (Homo sapiens (Human)) (UniProt Q05086); assay: Simoa; capture GTX, no helper beads; 3E5 0.2 ug/ml; UBE3A 0.0320 ng/ml
[20] = target: recombinant UBE3A protein (Homo sapiens (Human)) (UniProt Q05086); assay: Simoa; capture GTX, no helper beads; 3E5 0.2 ug/ml; UBE3A 0.00640 ng/ml

Chain of UniProt Q05086 (Q05086 whole entry): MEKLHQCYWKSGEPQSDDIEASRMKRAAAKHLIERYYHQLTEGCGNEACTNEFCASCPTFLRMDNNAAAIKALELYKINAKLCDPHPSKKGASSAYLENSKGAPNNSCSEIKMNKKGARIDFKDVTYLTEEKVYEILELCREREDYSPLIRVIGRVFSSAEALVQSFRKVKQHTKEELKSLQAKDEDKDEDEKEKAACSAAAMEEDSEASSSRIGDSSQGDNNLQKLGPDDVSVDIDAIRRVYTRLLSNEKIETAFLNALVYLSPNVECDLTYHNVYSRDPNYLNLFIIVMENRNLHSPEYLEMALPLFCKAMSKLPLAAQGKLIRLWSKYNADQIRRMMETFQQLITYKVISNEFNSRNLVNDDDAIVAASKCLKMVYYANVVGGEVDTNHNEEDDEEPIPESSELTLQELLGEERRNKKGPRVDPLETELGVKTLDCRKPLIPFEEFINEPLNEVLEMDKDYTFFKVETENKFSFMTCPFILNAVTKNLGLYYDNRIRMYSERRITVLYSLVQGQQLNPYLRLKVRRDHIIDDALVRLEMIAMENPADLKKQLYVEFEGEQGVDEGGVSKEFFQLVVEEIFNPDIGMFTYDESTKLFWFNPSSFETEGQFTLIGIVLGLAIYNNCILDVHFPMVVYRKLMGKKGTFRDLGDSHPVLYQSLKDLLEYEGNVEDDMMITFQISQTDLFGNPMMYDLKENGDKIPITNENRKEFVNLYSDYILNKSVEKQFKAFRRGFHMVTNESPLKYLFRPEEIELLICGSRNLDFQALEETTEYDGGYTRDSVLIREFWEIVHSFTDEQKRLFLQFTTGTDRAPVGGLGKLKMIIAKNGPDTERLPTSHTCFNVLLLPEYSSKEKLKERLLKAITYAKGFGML

## NB500-240 (Novus) (antibody)
[1]
  AEB1: 0.303
  AEB2: 0.308
  Ave AEB: 0.305
  Signal to Background: 93.4
[2]
  AEB1: 0.018
  AEB2: 0.0187
  Ave AEB: 0.0184
  Signal to Background: 5.62

## anti-UBE3A antibody 3E5 (SAB1404508-100 ug, Millipore-Sigma)
[3]
  AEB1: 0.0035
  AEB2: 0.0048
  Ave AEB: 0.0042
  Signal to Background: 1.06
[4]
  AEB1: 3.96
  AEB2: 3.97
  AEB3: 4.1
  Average AEB: 4.01
  Signal to Background: 478
[5]
  AEB1: 0.271
  AEB2: 0.285
  AEB3: 0.279
  Average AEB: 0.278
  Signal to Background: 21
[6]
  AEB1: 0.0059
  AEB2: 0.0047
  AEB3: 0.0074
  Average AEB: 0.006
  Signal to Background: 1.36
[7]
  AEB1: 5.11
  AEB2: 5.62
  AEB3: 5.2
  Average AEB: 5.31
  Signal to Background: 276
[8]
  AEB1: 0.848
  AEB2: 0.891
  AEB3: 0.878
  Average AEB: 0.873
  Signal to Background: 45.3
[9]
  AEB1: 0.509
  AEB2: 0.48
  AEB3: 0.478
  Average AEB: 0.489
  Signal to Background: 7.81
[10]
  AEB1: 0.0242
  AEB2: 0.0239
  AEB3: 0.0247
  Average AEB: 0.0243
  Signal to Background: 1.26
[11]
  AEB1: 0.0071
  AEB2: 0.0078
  Ave AEB: 0.0074
  Signal to Background: 1.96
[12]
  AEB1: 0.0054
  AEB2: 0.0055
  Ave AEB: 0.0055
  Signal to Background: 3.22
[13]
  AEB1: 4.41
  AEB2: 6.45
  Average AEB: 5.43
  Signal to Background: 278
[14]
  AEB1: 0.0913
  AEB2: 0.105
  Average AEB: 0.0983
  Signal to Background: 5.03
[15]
  AEB1: 4.96
  AEB2: 5
  Average AEB: 4.98
  Signal to Background: 514
[16]
  AEB1: 0.0127
  AEB2: 0.0115
  Average AEB: 0.0121
  Signal to Background: 1.25
[17]
  AEB1: 0.164
  AEB2: 0.157
  Average AEB: 0.16
  Signal to Background: 27.9
[18]
  AEB1: 0.335
  AEB2: 0.338
  Average AEB: 0.337
  Signal to Background: 17.2
[19]
  AEB1: 0.0229
  AEB2: 0.0244
  Average AEB: 0.0236
  Signal to Background: 2.44
[20]
  AEB2: 0.012
  Average AEB: 0.012
  Signal to Background: 1.24
